Test results taken from PMC3037360.

Legend:
[1] = target: CFP-E2TM (CFP in fusion with the transmembrane domain of HCV E2, H strain) (hepatitis C virus (H strain)); experiment: FRET or BRET
[2] = target: CFP-p7 (Cerulean fluorescent protein fused to the N-terminus of HCV p7) (hepatitis C virus (strain not stated)) (UniProt P27958); experiment: FRET or BRET

Row | Substance | mean lifetime of the donor protein [1] | mean lifetime of the donor protein [2]
1 | YFP-E1TM (YFP in fusion with the transmembrane domain of HCV E1, H strain) (domain or fragment) | 2.35 ns | –
2 | YFP-NS2 (Venus yellow fluorescent protein fused to the N-terminus of HCV NS2) (from UniProt P27958 810-1026) (natural protein) | – | 2.34 ns
